# EP4545091A1 (priority 2023, dated 2025)
# Target: TMPRSS2 on cells (UniProt O15393)
# Assay: cell-based or functional assay
substance,measurement,value
Trypstatin (AMBP 284-344) (peptide),"IC50, MERS-CoV spike pseudoparticle entry into CaCo-2 cells (luciferase)",78 nM
same,"IC50, SARS-CoV spike pseudoparticle entry into CaCo-2 cells (luciferase)",31 nM
